The text below walks through data of US7601687.

In assay [1] the target is B type Insulin Receptor of islet cells (endogenous) (rat or mouse (not stated for the experiment)). Description: cell-based or functional assay.
Assay [2] addresses B type Insulin Receptor of HIT-T15 cells (endogenous) (hamster). Put plainly: cell-based or functional assay.

In assay [1], insulin (ligand) returned a βGK mRNA levels in pancreatic islets (FIG. 4A) of 50 µU per ml. Further, in assay [2], the amount of exogenous insulin necessary to trigger βGK promoter activity (βGK promoter-driven GFP expression, HIT cells, FIG. 4B) was 20 µU per ml.
